Assays:
[1] = molecular target: p75^NGFR (human, on B lymphocytes) (human) (UniProt P08138); assay: equilibrium binding of 125I-NGF, Scatchard analysis, small resting human B lymphocytes after acid (pH 3.0) treatment, low-affinity receptors
[2] = molecular target: p75^NGFR (human, on B lymphocytes) (human) (UniProt P08138); assay: equilibrium binding of 125I-NGF, Scatchard analysis, large (in vivo activated) human tonsil B cells, low-affinity class of sites
[3] = molecular target: low-affinity NGF binding sites on murine unfractionated sIg^+ B cells (mouse) (UniProt Q9Z0W1); assay: equilibrium binding of 125I-NGF on acid-treated murine splenic B lymphocytes (unfractionated sIg+ cells), low-affinity sites
Sequence of UniProt Q9Z0W1 (Q9Z0W1 32-427): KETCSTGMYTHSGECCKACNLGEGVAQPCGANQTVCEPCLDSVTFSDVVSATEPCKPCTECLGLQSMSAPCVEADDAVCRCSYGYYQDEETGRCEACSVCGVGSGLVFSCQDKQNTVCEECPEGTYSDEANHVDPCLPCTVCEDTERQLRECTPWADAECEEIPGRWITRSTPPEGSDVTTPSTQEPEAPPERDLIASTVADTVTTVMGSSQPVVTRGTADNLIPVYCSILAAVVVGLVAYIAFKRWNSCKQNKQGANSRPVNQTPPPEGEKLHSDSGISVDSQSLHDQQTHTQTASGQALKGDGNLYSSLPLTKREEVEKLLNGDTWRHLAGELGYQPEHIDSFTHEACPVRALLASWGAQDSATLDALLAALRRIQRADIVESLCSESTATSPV

[4] = molecular target: high-affinity NGF binding sites on murine unfractionated sIg^+ B cells (mouse) (UniProt Q3UFB7); assay: equilibrium binding of 125I-NGF on acid-treated murine splenic B lymphocytes (unfractionated sIg+ cells), high-affinity sites
Sequence of UniProt Q3UFB7 (Q3UFB7 34-799): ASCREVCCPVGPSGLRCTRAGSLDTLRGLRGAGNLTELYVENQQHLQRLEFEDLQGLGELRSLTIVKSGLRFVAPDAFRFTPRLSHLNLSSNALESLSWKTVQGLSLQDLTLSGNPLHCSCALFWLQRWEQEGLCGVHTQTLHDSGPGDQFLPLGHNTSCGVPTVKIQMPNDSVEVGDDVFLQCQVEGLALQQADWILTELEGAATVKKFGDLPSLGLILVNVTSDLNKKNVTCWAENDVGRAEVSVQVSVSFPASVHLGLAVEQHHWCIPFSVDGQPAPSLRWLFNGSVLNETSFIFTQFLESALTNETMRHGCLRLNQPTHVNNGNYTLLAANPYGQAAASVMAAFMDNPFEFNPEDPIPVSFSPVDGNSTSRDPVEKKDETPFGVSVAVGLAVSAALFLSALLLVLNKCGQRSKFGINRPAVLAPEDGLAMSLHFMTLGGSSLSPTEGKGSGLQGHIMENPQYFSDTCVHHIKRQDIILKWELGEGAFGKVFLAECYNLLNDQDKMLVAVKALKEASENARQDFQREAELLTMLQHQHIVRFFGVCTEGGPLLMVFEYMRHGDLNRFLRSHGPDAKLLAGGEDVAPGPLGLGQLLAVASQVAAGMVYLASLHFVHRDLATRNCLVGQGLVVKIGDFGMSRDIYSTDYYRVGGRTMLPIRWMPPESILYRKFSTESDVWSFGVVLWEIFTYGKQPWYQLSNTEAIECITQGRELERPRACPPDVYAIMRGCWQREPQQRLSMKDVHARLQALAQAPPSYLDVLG

[5] = molecular target: gp39 (CD40 ligand) (human) (UniProt P29965); assay: cell-based or functional assay
Sequence of UniProt P29965 (P29965 whole entry): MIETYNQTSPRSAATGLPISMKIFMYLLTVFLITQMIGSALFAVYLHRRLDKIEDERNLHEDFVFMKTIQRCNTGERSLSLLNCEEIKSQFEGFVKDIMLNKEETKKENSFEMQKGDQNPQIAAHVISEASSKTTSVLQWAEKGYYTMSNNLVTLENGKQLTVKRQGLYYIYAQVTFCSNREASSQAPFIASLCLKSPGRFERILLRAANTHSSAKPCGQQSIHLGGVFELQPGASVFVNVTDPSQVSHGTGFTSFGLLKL

Sequence of UniProt P08138 (P08138 29-427): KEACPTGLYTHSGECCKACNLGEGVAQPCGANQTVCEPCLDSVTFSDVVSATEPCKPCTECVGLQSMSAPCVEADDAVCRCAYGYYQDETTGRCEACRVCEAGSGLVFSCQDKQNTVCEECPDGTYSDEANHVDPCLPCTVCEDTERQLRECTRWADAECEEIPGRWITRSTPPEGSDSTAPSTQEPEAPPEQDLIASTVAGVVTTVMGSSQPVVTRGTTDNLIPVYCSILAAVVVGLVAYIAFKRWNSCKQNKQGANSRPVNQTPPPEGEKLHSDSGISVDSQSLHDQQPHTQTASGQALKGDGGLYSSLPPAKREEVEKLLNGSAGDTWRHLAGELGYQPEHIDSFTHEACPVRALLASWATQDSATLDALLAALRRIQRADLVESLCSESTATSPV

Substance	Kd [1] [nM]	binding sites/cell (binding sites/cell) [1]	Kd [2] [nM]	binding sites/cell (binding sites/cell) [2]	Kd [3] [nM]	binding sites per cell (binding sites per cell) [3]	Kd [4] [nM]	binding sites per cell (binding sites per cell) [4]	IgA (ng/ml) in supernatants of PWM-stimulated human PBMNC, PWM + CD40µ (CD4µ control 9,865) [5] [ng/mL]	IgG (ng/ml) in supernatants of PWM-stimulated human PBMNC, PWM + CD40µ (CD4µ control 1,024) [5] [ng/mL]	IgM (ng/ml) in supernatants of PWM-stimulated human PBMNC, PWM + CD40µ (CD4µ control 928) [5] [ng/mL]
^125I-NGF (Nerve Growth Factor, radio-iodinated, Amersham) (ligand)	1	1e+06	1	1e+06	1.1	1e+06	0.135	4800			
soluble CD40 pentamer (from UniProt P25942 21-193)									4790	554	1530

Reference: patent US20020052313A1
